According to PMC10205607, “MAP4K3 inhibits Sirtuin-1 to repress the LKB1–AMPK pathway to promote amino acid-dependent activation of the mTORC1 complex” (Life Science Alliance, 2023):

Biological target: T1, FLAG-LKB1 (UniProt Q15831 1-433)
T1 construct: Liver kinase B1 (LKB1); also called liver kinase B1; source: HEK293A (WT or MAP4K3 k.o.), transfected, in lysate
T1 sequence (looked up): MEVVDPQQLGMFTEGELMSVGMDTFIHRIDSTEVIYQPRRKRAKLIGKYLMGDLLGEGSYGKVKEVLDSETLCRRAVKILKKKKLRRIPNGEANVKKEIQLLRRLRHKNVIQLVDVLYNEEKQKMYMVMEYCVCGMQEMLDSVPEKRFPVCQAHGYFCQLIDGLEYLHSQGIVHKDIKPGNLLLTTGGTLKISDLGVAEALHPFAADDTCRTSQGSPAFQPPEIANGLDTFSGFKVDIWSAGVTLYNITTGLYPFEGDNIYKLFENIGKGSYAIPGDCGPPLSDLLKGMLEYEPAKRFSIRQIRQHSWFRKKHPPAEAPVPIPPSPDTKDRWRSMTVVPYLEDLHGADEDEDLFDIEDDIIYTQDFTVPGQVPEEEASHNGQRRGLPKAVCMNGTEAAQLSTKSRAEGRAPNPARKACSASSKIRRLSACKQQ
Experiment: co-IP; anti-FLAG IP from lysates of co-transfected HEK293A cells (WT or MAP4K3 k.o.), blot with anti-HA and anti-FLAG; lysis buffer 25 mM HEPES-KOH pH 7.4, 150 mM NaCl, 5 mM EDTA, 1% Triton X-100; 2 h at 4°C
Conditions: partners not purified

B1: SIRT1-HA-T344D (enzyme, UniProt Q96EB6 1-747, looked up)
chain: MADEAALALQPGGSPSAAGADREAASSPAGEPLRKRPRRDGPGLERSPGEPGGAAPEREVPAAARGCPGAAAAALWREAEAEAAAAGGEQEAQATAAAGEGDNGPGLQGPSREPPLADNLYDEDDDDEGEEEEEAAAAAIGYRDNLLFGDEIITNGFHSCESDEEDRASHASSSDWTPRPRIGPYTFVQQHLMIGTDPRTILKDLLPETIPPPELDDMTLWQIVINILSEPPKRKKRKDINTIEDAVKLLQECKKIIVLTGAGVSVSCGIPDFRSRDGIYARLAVDFPDLPDPQAMFDIEYFRKDPRPFFKFAKEIYPGQFQPSLCHKFIALSDKEGKLLRNYDQNIDTLEQVAGIQRIIQCHGSFATASCLICKYKVDCEAVRGDIFNQVVPRCPRCPADEPLAIMKPEIVFFGENLPEQFHRAMKYDKDEVDLLIVIGSSLKVRPVALIPSSIPHEVPQILINREPLPHLHFDVELLGDCDVIINELCHRLGGEYAKLCCNPVKLSEITEKPPRTQKELAYLSELPPTPLHVSEDSSSPERTSPPDSSVIVTLLDQAAKSNDDLDVSESKGCMEEKPQEVQTSRNVESIAEQMENPDLKNVGSSTGEKNERTSVAGTVRKCWPNRVAKEQISRRLDGNQYLFLPPNRYIFHGAEVYSDSEDDVLSSSSCGSNSDSGTCQSPSLEEPMEDESEIEEFYNGLEDEPDVPERAGGAGFGTDGDDQEAINEAISVKQEVTDMNYPSNKS
notes: Derived from the SIRT1-HA construct; also called SIRT1-T344D; SIRT1-T344D-HA; source: MAP4K3 k.o; HEK293A (M4 line), transfected, in lysate
Q: With B1 as the binder, how does the “fold change of the co-precipitate against WT SIRT1 with LKB1 (in MAP4K3 k.o. cells)” value read?
A: ~2 fold
